Results published in patent publication US20090232823A1 (Eli Lilly, published 2009).

How the values were obtained:
[1] = target: recombinant human TYRP1 (tyrosinase-related protein-1) (human) (UniProt P17643); assay: ELISA, plate coated with recombinant human TYRP1, antibody titrated
[2] = target: recombinant human TYRP1 (tyrosinase-related protein-1) (human) (UniProt P17643); assay: SPR (Biacore), TYRP1 immobilized on CM5 chip, antibody injected, 20-25 °C
[3] = target: recombinant human TYRP1 (tyrosinase-related protein-1) (human) (UniProt P17643); assay: SPR (Biacore), TYRP1 immobilized; summary table
[4] = target: recombinant human TYRP1 (tyrosinase-related protein-1) (human) (UniProt P17643); assay: ELISA on plate-coated recombinant human TYRP1 (column headed 'Competition ELISA'); summary table
[5] = target: native human TYRP1 expressed on human melanoma cell lines (624mel, SKmel28, SKmel23) (human, UniProt P17643 25-537); assay: cell-based or functional assay

EC50 [1]	Kd [2]	koff [2]	kon [2]	Kd [3]	EC50 [4]	Human ADCC (%) [5]	Molecule
0.4 nM	1.7 nM	0.00016 s⁻¹	95000 M⁻¹ s⁻¹	1.7 nM	0.4 nM	–	TA99, murine monoclonal antibody (IgG2a) specific for human and murine TYRP1
–	–	–	–	–	–	48%	CTA99, chimeric antibody with a human constant region IgG1 (antibody, V domains shown) VH: EVQLQQSGAELVRPGALVKLSCKTSGFNIKDYFLHWVRQRPDQGLEWIGWINPDNGNTVYDPKFQGTASLTADTSSNTVYLQLSGLTSEDTAVYFCTRRDYTYEKAALDYWGQGASVIVFS VL: AIQMSQSPASLSASVGETVTITCRASGNIYNYLAWYQQKQGKSPHLLVYDAKTLADGVPSRFSGSGSGTQYSLKISSLQTEDSGNYYCQHFWSLPFTFGSGTKLEIKR
